Data: the supplement of paper PMC9876800

Tested on: peptide library, one residue held at a place counted from the S/T acceptor
Test: relative phosphorylation of the sub-library (ratio to the mean residue at this position); higher = residue favoured
How it was run: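 Relative sub-library phosphorylation is a ratio to the mean residue at the same position. Purified recombinant kinases were incubated under kinase-specific conditions with biotinylated degenerate peptide sub-libraries, each fixing one residue at one position around a central Ser/Thr, using 50 μM peptide and 50 μM ATP spiked with γ-32P-ATP for 90 min. Spots captured on streptavidin membranes were phosphorimaged and quantified by densitometry.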

Chain of MAP3K21, construct: aa98-451, human (Q5TCX8 98-451, looked up): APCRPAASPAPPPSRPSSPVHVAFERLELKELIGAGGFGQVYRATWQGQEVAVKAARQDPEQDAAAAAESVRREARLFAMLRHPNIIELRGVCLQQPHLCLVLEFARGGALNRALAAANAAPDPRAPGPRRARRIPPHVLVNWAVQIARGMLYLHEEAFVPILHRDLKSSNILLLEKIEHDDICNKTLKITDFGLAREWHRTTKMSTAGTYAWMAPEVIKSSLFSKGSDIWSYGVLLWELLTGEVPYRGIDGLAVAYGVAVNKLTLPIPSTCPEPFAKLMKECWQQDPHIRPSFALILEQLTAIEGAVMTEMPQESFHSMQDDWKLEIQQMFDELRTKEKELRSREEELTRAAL
Chain of EEF2K, construct: Full length, human (O00418 whole entry, looked up): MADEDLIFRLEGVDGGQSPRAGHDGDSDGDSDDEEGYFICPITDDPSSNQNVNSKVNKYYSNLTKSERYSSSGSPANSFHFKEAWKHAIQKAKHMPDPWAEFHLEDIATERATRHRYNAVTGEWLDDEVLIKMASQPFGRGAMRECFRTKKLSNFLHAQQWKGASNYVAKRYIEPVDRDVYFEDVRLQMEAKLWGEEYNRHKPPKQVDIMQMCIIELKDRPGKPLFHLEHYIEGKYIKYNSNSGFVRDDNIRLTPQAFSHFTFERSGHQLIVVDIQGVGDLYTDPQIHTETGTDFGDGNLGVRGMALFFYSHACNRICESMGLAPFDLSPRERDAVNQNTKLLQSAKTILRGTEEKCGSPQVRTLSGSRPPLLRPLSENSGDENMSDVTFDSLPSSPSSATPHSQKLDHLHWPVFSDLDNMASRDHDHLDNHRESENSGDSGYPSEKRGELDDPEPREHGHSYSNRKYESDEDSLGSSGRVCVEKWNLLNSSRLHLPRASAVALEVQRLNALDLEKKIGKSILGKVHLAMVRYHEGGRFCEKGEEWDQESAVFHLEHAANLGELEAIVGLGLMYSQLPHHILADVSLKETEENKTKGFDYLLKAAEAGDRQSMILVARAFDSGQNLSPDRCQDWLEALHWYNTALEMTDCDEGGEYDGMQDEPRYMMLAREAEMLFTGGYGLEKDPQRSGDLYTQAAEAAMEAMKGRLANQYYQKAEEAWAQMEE
Chain of PIM2, construct: Full length with a 14aa C-terminal extension from Gateway cloning, human (Q9P1W9 whole entry, looked up): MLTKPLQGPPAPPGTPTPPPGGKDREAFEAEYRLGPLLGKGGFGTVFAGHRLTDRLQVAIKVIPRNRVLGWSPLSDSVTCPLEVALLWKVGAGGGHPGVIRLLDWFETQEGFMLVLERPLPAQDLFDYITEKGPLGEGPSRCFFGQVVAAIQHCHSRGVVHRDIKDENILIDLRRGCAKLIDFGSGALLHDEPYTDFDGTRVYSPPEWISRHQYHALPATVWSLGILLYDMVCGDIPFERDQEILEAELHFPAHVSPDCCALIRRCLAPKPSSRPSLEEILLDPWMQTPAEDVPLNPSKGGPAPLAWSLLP
Chain of CDK8, construct: Full length*, human (P49336 whole entry, looked up): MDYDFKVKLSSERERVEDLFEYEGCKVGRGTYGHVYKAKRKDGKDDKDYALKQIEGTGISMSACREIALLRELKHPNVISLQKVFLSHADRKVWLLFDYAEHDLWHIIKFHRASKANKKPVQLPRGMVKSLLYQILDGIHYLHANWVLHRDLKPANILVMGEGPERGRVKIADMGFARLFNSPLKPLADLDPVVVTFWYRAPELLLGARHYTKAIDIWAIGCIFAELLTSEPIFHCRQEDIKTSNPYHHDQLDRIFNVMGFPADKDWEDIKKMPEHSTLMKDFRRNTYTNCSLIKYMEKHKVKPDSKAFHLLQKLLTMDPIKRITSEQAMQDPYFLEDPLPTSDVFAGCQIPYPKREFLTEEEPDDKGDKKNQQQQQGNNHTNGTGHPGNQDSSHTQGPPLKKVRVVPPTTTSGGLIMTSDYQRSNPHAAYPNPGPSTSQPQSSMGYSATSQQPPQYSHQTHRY

EEF2K, construct: Full length, human (from UniProt O00418)
relative phosphorylation
Conditions	at +1	at +2	at +3	at +4	at -1	at -2	at -3	at -4	at -5
A fixed	1.46	0.748	0.733	0.852	1.3	1.1	0.971	1.01	1.08
D fixed	0.421	0.233	0.609	0.742	1.24	1.24	1.14	0.912	0.748
E fixed	1.5	0.236	0.618	0.644	1.25	1.91	1.13	0.794	0.718
F fixed	0.935	1.16	0.583	0.718	0.881	0.935	0.971	1.61	1.17
G fixed	0.447	0.773	0.679	1.08	1.14	1.13	1.32	1.18	1.07
H fixed	0.864	1.31	0.766	1.28	1.08	0.929	0.971	0.878	0.873
I fixed	1.4	0.647	0.417	0.651	0.598	0.739	0.945	0.932	1.02
K fixed	0.992	2.31	3.25	2.03	0.978	0.631	0.975	1.11	1.24
L fixed	1.09	0.565	0.477	0.643	0.93	0.751	0.975	1.04	0.892
M fixed	1.13	0.909	0.504	0.799	1.05	0.848	0.978	1.17	1.1
N fixed	0.551	0.695	0.918	1.08	1.04	0.655	1.09	0.901	0.975
P fixed	0.253	0.361	0.337	0.96	0.96	1.57	1.08	0.889	1.03
Q fixed	1.33	0.965	0.88	1.07	0.983	1.06	0.893	0.809	0.847
R fixed	1.04	3.13	4.55	1.91	1.14	0.821	1.04	1.08	1.18
V fixed	1.72	0.776	0.537	0.665	0.567	0.833	0.848	0.876	0.993
W fixed	0.885	0.684	0.563	1.1	0.806	0.921	0.79	0.869	1.06
Y fixed	0.989	1.49	0.581	0.762	1.06	0.918	0.886	0.939	1.02
pThr fixed	0.777	0.601	0.648	1.05	0.619	0.91	1.27	0.982	1.29
pTyr fixed	1.85	0.381	0.882	0.738	1	2.03	1.3	0.754	1.47

MAP3K21, construct: aa98-451, human (from UniProt Q5TCX8)
relative phosphorylation
Conditions	at +1	at +2	at +3	at +4	at -1	at -2	at -3	at -4	at -5
A fixed	0.66	0.456	0.721	0.893	0.777	0.912	0.933	1.05	1.07
D fixed	0.244	0.223	0.462	0.682	1.23	1.55	1.72	1.84	1.8
E fixed	0.435	0.323	0.508	0.676	0.821	1.43	1.97	1.81	1.63
F fixed	1.52	0.38	1.08	0.633	0.875	1.02	0.789	0.676	0.82
G fixed	0.585	0.397	0.796	1.11	0.386	0.992	1.17	1.37	1.24
H fixed	1.21	2.1	1.61	1.16	1.46	1.19	1.19	1.12	1.06
I fixed	1.28	0.502	0.71	0.622	0.534	0.537	0.406	0.49	0.485
K fixed	1.25	2.23	1.52	2.18	1.03	0.356	0.702	0.83	1.03
L fixed	0.726	0.507	1.14	0.58	0.711	0.699	0.545	0.513	0.609
M fixed	1.61	0.467	0.881	0.722	0.914	1.04	0.806	0.818	0.654
N fixed	0.62	0.624	0.829	0.871	1.43	1.18	1.22	1.16	1.01
P fixed	0.185	0.18	0.398	1.46	0.679	1.85	1.19	1.19	1.08
Q fixed	1.16	0.88	0.849	1.16	1.02	1.05	1.16	0.968	0.99
R fixed	1.92	3.75	1.87	2.13	1.4	0.593	0.817	0.902	1.13
V fixed	1.98	0.426	0.81	0.753	0.875	0.52	0.496	0.595	0.682
W fixed	0.707	1.91	1.41	0.702	1.19	0.909	0.872	0.886	0.825
Y fixed	0.907	1.65	1.41	0.661	1.67	1.18	1.02	0.779	0.886
pThr fixed	1.13	0.418	0.664	0.851	0.803	1.09	1.84	1.28	1.35
pTyr fixed	0.604	0.427	0.692	0.519	1.83	1.01	1.17	1.11	1.22

PIM2, construct: Full length with a 14aa C-terminal extension from Gateway cloning, human (from UniProt Q9P1W9)
relative phosphorylation
Conditions	at +1	at +2	at +3	at +4	at -1	at -2	at -3	at -4	at -5
A fixed	1.17	0.889	0.802	0.851	0.852	0.568	0.578	0.935	0.695
D fixed	0.638	0.729	0.859	0.833	0.593	0.32	0.269	0.497	0.413
E fixed	0.834	0.713	0.752	0.764	0.587	0.343	0.295	0.666	0.413
F fixed	0.653	0.75	0.909	0.874	0.887	0.911	0.388	0.776	0.547
G fixed	3.18	0.978	0.99	1.08	0.814	0.418	0.43	0.891	0.789
H fixed	0.871	1.48	1.31	1.04	1.16	2.64	0.78	1.01	1.01
I fixed	0.723	0.606	0.709	0.841	0.699	0.541	0.366	0.837	0.588
K fixed	1.14	1.33	1.24	1.28	1.33	1.7	1.91	1.9	2.91
L fixed	0.663	0.664	0.721	0.793	0.912	0.594	0.381	0.79	0.608
M fixed	0.861	0.71	0.783	0.845	0.921	0.649	0.397	0.985	0.6
N fixed	1.11	1.07	0.958	1.11	1.18	1.04	0.48	0.988	0.728
P fixed	0.727	1.13	1.04	1.3	1.86	0.524	0.453	0.755	0.791
Q fixed	1.04	1.02	1.1	1.05	0.875	0.787	0.591	0.948	0.807
R fixed	1.34	2.57	2.27	1.62	1.55	3.21	8.41	2.6	4.14
V fixed	0.765	0.65	0.695	0.793	0.871	0.571	0.405	0.906	0.642
W fixed	0.626	0.867	0.955	1.05	0.701	1.07	0.475	0.738	0.576
Y fixed	0.66	0.848	0.923	0.885	1.2	1.11	0.395	0.777	0.741
pThr fixed	0.857	0.654	0.668	0.888	0.379	0.35	0.342	0.632	0.471
pTyr fixed	0.608	0.69	0.846	0.748	0.862	0.62	0.325	0.545	0.522

CDK8, construct: Full length*, human (from UniProt P49336)
relative phosphorylation
Conditions	at +1	at +2	at +3	at +4	at -1	at -2	at -3	at -4	at -5
A fixed	0.287	1.26	1.05	1.01	1.02	1.65	1.08	0.959	0.86
D fixed	0.179	0.789	0.841	1.19	0.791	0.579	0.887	1.18	1.4
E fixed	0.16	0.729	0.743	0.882	0.556	0.602	0.934	1.21	1.32
F fixed	0.26	0.84	0.734	0.893	1.03	0.43	1.04	1.1	1.33
G fixed	0.807	1.31	1.47	1.15	1.47	0.849	1.29	0.931	0.883
H fixed	0.408	1.03	1.12	1.06	0.982	0.643	0.947	1.08	1.01
I fixed	0.463	0.891	0.735	1.04	0.286	1.06	0.684	0.944	0.864
K fixed	0.239	1.11	0.649	0.698	1.03	0.309	0.592	0.842	0.747
L fixed	0.291	1.02	0.694	0.949	1.04	0.936	0.683	0.91	0.911
M fixed	0.36	1.12	1.02	0.955	1.44	1.05	1.48	1.05	0.78
N fixed	0.51	0.899	1.39	0.862	0.866	0.697	1.25	0.836	0.887
P fixed	10.9	0.801	1.91	1.09	1.37	4.62	1.23	0.923	0.896
Q fixed	0.369	1.13	1.03	0.977	1.02	0.876	1.16	0.941	0.917
R fixed	0.231	1.26	0.878	0.847	1.28	0.413	0.631	0.829	0.858
V fixed	1	0.807	0.977	1.09	0.559	1.31	0.698	0.847	0.813
W fixed	0.306	1.02	0.802	1.38	1.19	0.505	1.31	1.21	0.872
Y fixed	0.241	0.976	0.942	0.926	1.07	0.466	1.09	1.21	1.65
pThr fixed	0.423	0.473	0.694	0.882	0.312	0.668	0.74	1.11	0.898
pTyr fixed	0.43	0.934	0.886	0.851	0.758	0.614	0.745	1.13	1.11
